Test results reported in patent publication US20060121553A1, “Fluorogenic enzyme assay methods, kits and compositions using charge-balancers” (Applera Corporation, priority 2004, published 2006).
*: point of attachment. Palmitoyl = CCCCCCCCCCCCCCCC(=O)*; K(Dye 2) = not defined here; code O = not defined here

Legend:
[1] = Total charge of substrate molecule and charge-balance molecule; assay type: physicochemical
Excerpt: FIG. 6B illustrates an exemplary charge-balance molecule (i.e. C16ArgArgOOOArgArgIleTyrGlyArgPheNH2, wherein OOO represents the optional O-spacers) that can be used balance the charge of the substrate molecule illustrated in FIG. 6A. The substrate molecule illustrated in FIG. 6A comprises a fluorescent moiety containing a sulfonate anion with a charge of ^−2. The substrate molecule illustrated in FIG. 6A further comprises a substrate moiety comprising three glutamate residues, each with a −1 charge. Thus, the total negative charge of the substrate molecule illustrated in FIG. 6A is ^−5 at physiological pH. […] The total positive charge of the charge-balance molecule illustrated in FIG. 6B is ^+5 at pH 7.6. Thus, the net charge of the compound comprising the substrate molecule illustrated in FIG. 6A and the charge-balance molecule illustrated in FIG. 6B is approximately zero at pH 7.6.

[2] = molecular target: tyrosine kinase Lyn (Homo sapiens, UniProt P07948); assay: Detection of protein kinase activity (fluorogenic micelle assay); assay type: biochemical; conditions: 2 μM substrate molecule, 2 μM charge-balance molecule, 0 or 100 μM ATP, 5 nM Lyn; FIG. 8
Chain of tyrosine kinase Lyn (P07948 whole entry): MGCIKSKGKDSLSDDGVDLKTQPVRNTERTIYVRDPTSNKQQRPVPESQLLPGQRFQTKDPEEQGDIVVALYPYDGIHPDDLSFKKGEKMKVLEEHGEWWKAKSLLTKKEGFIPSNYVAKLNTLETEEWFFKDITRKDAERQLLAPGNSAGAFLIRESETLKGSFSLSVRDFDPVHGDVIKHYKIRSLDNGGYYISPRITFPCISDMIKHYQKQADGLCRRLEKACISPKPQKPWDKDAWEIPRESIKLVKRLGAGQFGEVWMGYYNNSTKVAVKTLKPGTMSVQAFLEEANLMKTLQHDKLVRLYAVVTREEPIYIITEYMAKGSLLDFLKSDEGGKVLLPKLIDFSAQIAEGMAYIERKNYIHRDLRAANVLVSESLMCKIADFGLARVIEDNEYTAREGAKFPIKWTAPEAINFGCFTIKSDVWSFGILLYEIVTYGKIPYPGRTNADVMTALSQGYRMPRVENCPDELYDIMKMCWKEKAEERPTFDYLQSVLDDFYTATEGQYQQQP
Protocol: Kinase assays were performed using Corning 384-well, black, non-binding surface (NBS), microwell plates. Fluorescence was read in real time using a Molecular Dynamics Gemini XS plate reader, with excitation and emission set at 500 and 550 respectively. The plate was read every minute for one hour at ambient temperature.
Concentrations of the substrate molecule C16Lys(Dye 2)OOOGluGluIleTyrGlyGluPheNH2 and charge-balance molecule C16ArgArgOOOArgArgIleTyrGlyArg PheNH2 were determined by dilution of the purified peptides into dimethylformamide (200 µL) with 1 M NaOH (5 µL) and measuring the absorbance of 5-carboxy-2′,7′-dipyridyl-sulfonefluorescein (Dye2) at its absorbance maximum (548 nm). The extinction coefficient of Dye2 was assumed to be 80,000 cm1M-1.
A reaction solution was prepared containing the substrate molecule C16Lys(Dye 2)OOOGluGluIleTyrGlyGluPheNH2 (2 μM), and charge-balance molecule C16ArgArgOOOArgArgIleTyrGlyArg PheNH2 (2 μM), 20 mM Tris buffer, pH 7.6, MgCl2 (5 mM), DTT (5 mM) and Lyn (5 nM). The solution was pipetted into wells of a 384-well plate ([…] per well). ATP (0 or 100 μM) was added to initiate the kinase reaction. The plate was read at 500 nm excitation, 550 nm emission, each minute for 1 hour.

[3] = test system: T1, substrate molecule C16Lys(Dye 2)OOOGluGluIleTyrGlyGluPheNH2
T1 sequence: KEEIYGEF

C16ArgArgOOOArgArgIleTyrGlyArgPheNH2 ({Palmitoyl-Arg-Arg-code O-code O-code O}-RRIYGRF-NH2; reading uncertain; also: printed as C16ArgArgOOOArgArgIleTyrGlyArgPheNH2) [charge-balance molecule balancing the charge of the substrate molecule; OOO = O-spacers]
total positive charge ([1]; pH 7.6): +5

C16Lys(Dye 2)OOOGluGluIleTyrGlyGluPheNH2 ({Palmitoyl-K(Dye 2)-code O-code O-code O}-EEIYGEF-NH2; reading uncertain; also: printed as C16Lys(Dye 2)OOOGluGluIleTyrGlyGluPheNH2) [substrate molecule for tyrosine kinase Lyn; OOO = O-spacers, Dye2 = 5-carboxy-2′,7′-dipyridyl-sulfonefluorescein]
fluorescence change on addition of tyrosine kinase Lyn [2]: increase in fluorescence over time
total negative charge ([1]; physiological pH): −5

tyrosine kinase Lyn
fluorescence over time (rate of the kinase reaction, 0 or 100 µM ATP) [3]: The addition of tyrosine kinase Lyn to the micelle comprising the substrate molecule and charge-balance molecule cause an increase in fluorescence over time.
